Read-outs that look alike come from different tables or passages of the source. Positions of bridges follow the written chain, without caps; N, C: chain ends. No end group written: not given here.
Experiments:
[1] = system: RMA-T lymphoma; assay type: in vivo, mice
Experimental: RMA-T tumor-bearing mice (6 per group) were treated 11 days after tumor implantation with 100 pg of S-NGR-hTNF (i.p.). Two hours later, the mice were injected (i.p.) with 50 µg of melphalan (generic preparation of melphalan, Tillomed).
B) Kaplan-Maier curves of vehicle, melphalan alone and in combination with S-NGR-hTNF.
C) Animal body weight change (mean ± SE, 6 mice per group). Arrows: pharmacological treatment.
Inventors have shown previously that low-dose murine S-NGR-TNF (100 pg) can enhance the antitumor activity of melphalan, an anticancer alkylating agent, in a murine lymphoma model (Corti et al., 2020). To assess whether S-NGR-hTNF can also synergize with melphalan, inventors performed similar experiments using the RMA-T lymphoma model. As expected, administration of melphalan (50 µg) in combination with S-NGR-hTNF (100 pg) induced stronger antitumor effects than melphalan alone (FIGS. 21A-B).

[2] = buffer; cited from earlier work
[3] = molecular target: αvβ3 (Homo sapiens, UniProt P05106+P06756); details: cited from earlier work
[4] = system: malignant pleural mesothelioma (MPM); details: cited from earlier work
[5] = system: primary central nervous system lymphoma (PCNSL); details: with R-CHOP; cited from earlier work
[6] = system: L-M cells; assay: LM-cells cytolytic assay (MTT); assay type: cell-based; details: actinomycin D, 20 h, murine proteins
From the text: FIG. 8. Biochemical and biological characterization of murine S-NGR-TNF and NGR-TNF. A) SDS-PAGE under reducing (βMe +) and non-reducing conditions (βMe -) of murine S-NGR-TNF, NGR-TNF and TNF. Arrows: bands corresponding to monomeric subunits (mon) and reducible dimers (dim). B) Representative mass spectra of murine NGR-TNF, TNF and S-NGR-TNF as determined by a Q Exactive HF mass spectrometer. Expected average masses are shown. C) Cytotoxic activity of TNF, NGR-TNF and S-NGR-TNF against L-M cells. L-M cells were incubated in DMEM medium supplemented with 2 mM glutamine, 100 U/ml penicillin, 100 µg/ml streptomycin, 0.25 µg/ml amphotericin-B, 10% fetal bovine serum, 2 µg/ml actinomycin D and TNF, NGR-TNF or S-NGR-TNF at the indicated doses (20 h at 37° C., 5% CO2). Cell viability was quantified by standard 3-(4,5-dimethylthiazol-2-yl)-2,5-diphenyltetrazolium bromide (MTT) assay. D) Binding of TNF, NGR-TNF and S-NGR-TNF to sTNF-R1 (Etanercept). Microtiterplates were precoated with or without the indicated amount of sTNF-R1 (for 16 h), washed with PBS, blocked with PBS containing 3% milk, 1% BSA (binding buffer, 1 h) and incubated with the indicated amounts of TNF, NGR-TNF or S-NGR-TNF diluted in binding buffer (for 1.5 h). The binding of each protein to sTNF-R1 was then detected using a polyclonal anti-murine TNF (IP301, 5 µg/ml in binding buffer, 1 h) followed by a polyclonal goat anti-rabbit antibody conjugated with horseradish peroxidase (1:1000 in binding buffer, 1 h) and o-phenylendiammine as chromogenic substrate.
To assess whether the addition of a serine residue to NGR-TNF affects its capability to recognize the TNF receptors and, consequently, its biological activity, inventors then analyzed the cytotoxic activity of TNF, NGR-TNF and S-NGR-TNF in the LM-cells cytolytic assay.

[7] = system: endothelial EA.hy926 cells; assay: EA.hy926 endothelial cell adhesion assay on protein-coated microtiterplates; assay type: cell-based; details: plates coated in PBS, no forced deamidation
Experimental: FIG. 12. […] A) Adhesion of endothelial EA.hy926 cells to 96-wells microtiterplates coated with different amounts of murine TNF, NGR-TNF and S-NGR-TNF in 150 mM sodium chloride, 50 mM sodium phosphate buffer, pH 7.4 (PBS) (16 h). Each well was blocked with 2% BSA in PBS containing calcium chloride and magnesium chloride (DPBS, 30 min), seeded with 40.000 endothelial EA.hy926 cells in DPBS supplemented with 0.1% BSA (DPBS-B), and left to incubate for 2 h at 37° C., 5% CO2. After washing with DMEM-B, adherent cells were stained with crystal violet and quantified by spectrophotometric measurements at 570 nm. B) Microtiterplates pre-coated with 1 µg/ml of murine NGR-TNF or S-NGR-TNF in PBS (for 16 h) were incubated 0.1 M ammonium bicarbonate buffer, pH 8.5 (Ambic) at 37° C. for the indicated time to promote NGR deamidation. EA.hy926 cell adhesion assay was then performed as described above.
This behavior likely reflects a further improvement in the CNGRCG (SEQ ID NO: 1) stability when fused to TNF.

[8] = system: WEHI-164 fibrosarcoma; assay: Low-dose treatment in subcutaneous WEHI-164 fibrosarcoma murine model; assay type: in vivo; details: 25 or 50 pg, i.p.
Experimental: FIG. 14. […] Balb/c mice (6-7 weeks old, weighing 18-20 g) were injected, s.c., with 1.5×10^6 WEHI-164 cells in the left flank and treated 5 days after tumor implantation (i.p.) with 25 or 50 pg of murine NGR-TNF or S-NGR-TNF in 0.9% sodium chloride, containing 100 µg/ml endotoxin-free human serum albumin (arrows). A) Tumor volumes after treatment (mean±SE, 6 mice per group). B) Tumor weight at day 15 (cumulative data of the two groups treated with 25 and 50 pg of drugs). *, P<0.05, **P<0.01 by unpaired t test of the area under the curve for each tumor (GraphPad Prism software).
To assess whether the addition of the Ser residue to NGR-TNF might affect its anti-tumor activity at low dose, inventors then analyzed the therapeutic activity of NGR-TNF and S-NGR-TNF (25 or 50 pg, i.p.) using the subcutaneous WEHI-164 fibrosarcoma murine model.

[9] = system: RMA lymphoma; assay type: in vivo, mice; details: 100 pg i.p., melphalan two hours later
Experimental: FIG. 15. […] C57BL/6 mice (6-7 weeks old, weighing 18-20 g) were challenged with subcutaneous injection in the left flank of 7×10^4 RMA cells. Mice bearing RMA lymphomas (6 per group) were treated 10-11 days (after tumor implantation with 100 pg of murine NGR-TNF or S-NGR-TNF (i.p.). Two hours later, the mice were injected with the indicated dose of melphalan (i.p.). All proteins were diluted with 0.9% sodium chloride, containing 100 µg/ml endotoxin-free human albumin. Tumor growth was monitored daily by measuring the tumors with calipers. A-B) Tumor volume change of two independent experiments are shown (mean±SE). […] C) Tumor bearing-animals were treated at day 10 after tumor implantation as indicated above using the indicated dose of S-NGR-TNF and the generic preparation of melphalan (Melphalan-Tillomed, from Tillomed Italia). RMA tumor weight at day 20 are shown (mean±SE). *, P<0.05, **P<0.01 by unpaired t test analysis with the GraphPad Prism software.
Effect of melphalan alone or in combination with low-dose murine S-NGR-TNF on the body weight and tumor growth of RMA-T lymphoma-bearing mice. Six tumor-bearing mice were injected with the indicated doses of S-NGR-TNF (i.p) and, two hours later, with the generic preparation of melphalan (Melphalan-Tillomed) (i.p.).
Finally, to assess whether low-dose S-NGR-TNF can exert synergistic effects with chemotherapy, as previously observed for NGR-TNF, inventors performed in vivo experiments with S-NGR-TNF and NGR-TNF in combination with melphalan, a chemotherapeutic drug, using the murine RMA lymphoma model (FIG. 15).

[10] = S-NGR-hTNF 100 pg in combination with melphalan 50 µg

αvβ3, sequence (P06756 31-889 limits assumed): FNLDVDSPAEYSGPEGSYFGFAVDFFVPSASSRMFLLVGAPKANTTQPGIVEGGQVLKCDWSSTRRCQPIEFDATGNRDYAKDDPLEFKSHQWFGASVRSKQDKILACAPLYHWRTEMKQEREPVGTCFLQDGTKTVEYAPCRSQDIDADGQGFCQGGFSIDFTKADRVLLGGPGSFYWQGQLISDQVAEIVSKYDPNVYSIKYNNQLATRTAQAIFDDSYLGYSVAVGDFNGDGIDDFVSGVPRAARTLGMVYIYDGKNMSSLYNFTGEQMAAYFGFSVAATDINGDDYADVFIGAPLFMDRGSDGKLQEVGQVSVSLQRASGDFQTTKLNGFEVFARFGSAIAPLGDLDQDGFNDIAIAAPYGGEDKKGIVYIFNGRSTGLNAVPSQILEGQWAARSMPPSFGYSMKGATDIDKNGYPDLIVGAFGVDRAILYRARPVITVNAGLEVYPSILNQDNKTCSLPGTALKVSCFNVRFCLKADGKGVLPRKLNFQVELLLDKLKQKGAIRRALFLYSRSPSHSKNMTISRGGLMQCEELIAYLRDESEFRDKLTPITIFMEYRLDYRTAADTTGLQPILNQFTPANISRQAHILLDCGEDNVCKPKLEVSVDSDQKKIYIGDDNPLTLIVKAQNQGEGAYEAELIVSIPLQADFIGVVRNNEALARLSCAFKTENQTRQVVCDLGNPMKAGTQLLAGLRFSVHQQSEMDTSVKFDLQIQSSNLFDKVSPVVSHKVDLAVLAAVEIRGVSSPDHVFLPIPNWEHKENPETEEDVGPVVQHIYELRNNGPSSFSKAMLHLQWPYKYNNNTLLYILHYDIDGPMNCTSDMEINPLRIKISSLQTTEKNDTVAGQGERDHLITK
αvβ3, sequence (P06756 891-1048 partner limits assumed): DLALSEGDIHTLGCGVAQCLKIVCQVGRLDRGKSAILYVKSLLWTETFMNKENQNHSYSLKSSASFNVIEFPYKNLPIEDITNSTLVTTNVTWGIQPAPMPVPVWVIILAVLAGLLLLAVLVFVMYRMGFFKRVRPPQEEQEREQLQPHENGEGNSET
αvβ3, sequence (P05106 27-788): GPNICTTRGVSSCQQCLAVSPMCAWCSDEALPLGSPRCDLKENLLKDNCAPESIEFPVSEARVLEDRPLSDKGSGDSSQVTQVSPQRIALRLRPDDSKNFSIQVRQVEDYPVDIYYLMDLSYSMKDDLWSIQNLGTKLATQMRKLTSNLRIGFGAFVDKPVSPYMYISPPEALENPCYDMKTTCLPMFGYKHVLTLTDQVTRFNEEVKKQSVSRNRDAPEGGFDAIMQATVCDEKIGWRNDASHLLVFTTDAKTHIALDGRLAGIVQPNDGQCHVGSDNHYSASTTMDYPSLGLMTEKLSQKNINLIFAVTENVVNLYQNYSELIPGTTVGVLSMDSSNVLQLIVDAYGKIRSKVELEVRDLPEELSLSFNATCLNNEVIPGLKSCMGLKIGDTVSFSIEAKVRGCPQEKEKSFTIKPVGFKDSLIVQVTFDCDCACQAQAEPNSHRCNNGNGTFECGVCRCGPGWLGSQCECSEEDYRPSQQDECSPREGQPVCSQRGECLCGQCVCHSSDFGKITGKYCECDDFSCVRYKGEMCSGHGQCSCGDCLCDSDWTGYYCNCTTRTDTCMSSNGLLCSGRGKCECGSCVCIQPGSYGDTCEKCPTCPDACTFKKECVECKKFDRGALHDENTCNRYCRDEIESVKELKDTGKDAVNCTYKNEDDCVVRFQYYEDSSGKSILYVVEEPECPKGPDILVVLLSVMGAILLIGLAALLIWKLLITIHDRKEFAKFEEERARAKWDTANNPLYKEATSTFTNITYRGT

Molecule: N[C@@H](Cc1ccc(N(CCCl)CCCl)cc1)C(=O)O [melphalan, reference compound]
- median survival ([1]; melphalan 50 µg alone): ~28 days

Molecule: CNGRC (SEQ ID NO:5) (disulfide 1-5 (inferred); listed as Homo sapiens)
- deamidation half-life [2]: 4 to 5 h

Molecule: CisoDGRC (SEQ ID NO:41) (isoaspartate; disulfide cyclized; MOD_RES (1)..(1) Ciso or acetyl-Ciso or iso) [deamidation product of CNGRC]
- affinity for αvβ3 greater than αvβ5, αvβ6, αvβ8, and α5β1 [3]: 10-100 fold

Molecule: S-NGR-hTNF: Human SCNGRCG-TNF fusion protein expressed in E. coli (SEQ ID NO:27/28)
- median survival [1, 10]: 36.5 days
- toxicity of melphalan, judged from loss of animal weight [1, 10]: without increasing its toxicity

Molecule: human NGR-TNF: CNGRCG fused to the human TNF sequence, tested in Phase II and III clinical studies
- disease control in previously treated patients ([4]; 0.8 µg/m^2, 1 h infusion): about half
- duration of disease control ([4]; triweekly cohort): 4.4 months
- duration of disease control ([4]; weekly cohort): 9.1 months
- complete responses [5]: 50%
- responses [5]: 75%

B1: NGR-TNF: Murine CNGRCG-TNF fusion protein, conventional first-generation conjugate used as comparator (protein)
chain: CNGRCGLRSSSQNSSDKPVAHVVANHQVEEQLEWLSQRANALLANGMDLKDNQLVVPADGLYLVYSQVLFKGQGCPDYVLLTHTVSRFAISYQEKVNLLSAVKSPCPKDTPEGAELKPWYEPIYLGGVFQLEKGDQLSAEVNLPKYLDFAESGQVYFGVIAL
- EC50 cytotoxic activity [6]: very similar
- EA.hy926 cell adhesion to coated plates [7]: cell adhesion was observed
- toxicity [8]: No evidence of toxicity
- tumor growth [8]: delayed tumor growth to similar extent
- efficacy of melphalan in combination [9]: could enhance the efficacy of melphalan

From patent US20230181719A1, “NGR CONJUGATES AND USES THEREOF” (OSPEDALE SAN RAFFAELE S.R.L., priority 2020, published 2023)
